± gives the standard error. This sample holds only a part of the variants without activity.
B1: glmS ribozyme (parent)
chain: AUAAAAGCGCCAGAACUACAGAAAUGUAGUUGACGAGGAGGAGGUUUAUCGAAUUUUCGGCGGAUGCCUCCAAA

Assays:
Details in all cases: with glucosamine-6-phosphate
glucosamine-6-phosphate [1] = variants of: B1; assay: self-cleavage kobs at 40 uM GlcN6P; higher = faster cleavage; RNA array
Procedure, shortened: (§1)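 Tiles bearing barcoded ribozyme variants, transcribed in situ by E. coli RNA polymerase on sequenced MiSeq chips, were imaged over ~14 h at 37 °C using a hybridised Cy3 probe. Glucosamine-6-phosphate was supplied at 40 μM to 10 mM in HEPES/KCl/Mg(OAc)2 buffer. kobs came from one- or two-exponential decay fits to normalised per-tile medians, and weighted Michaelis–Menten fits then provided kcat and KM.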

glucosamine-6-phosphate [2] = variants of: B1; assay: self-cleavage kobs at 160 uM GlcN6P; higher = faster cleavage; RNA array
Procedure, shortened: as §1

glucosamine-6-phosphate [3] = variants of: B1; assay: self-cleavage kobs at 640 uM GlcN6P; higher = faster cleavage; RNA array
Procedure, shortened: as §1

glucosamine-6-phosphate [4] = variants of: B1; assay: self-cleavage kobs at 2500 uM GlcN6P; higher = faster cleavage; RNA array
Procedure, shortened: as §1

glucosamine-6-phosphate [5] = variants of: B1; assay: self-cleavage kobs at 10000 uM GlcN6P; higher = faster cleavage; RNA array
Procedure, shortened: as §1

| Variant | self-cleavage kobs at 40 uM GlcN6P (glucosamine-6-phosphate [1]) | self-cleavage kobs at 160 uM GlcN6P (glucosamine-6-phosphate [2]) | self-cleavage kobs at 640 uM GlcN6P (glucosamine-6-phosphate [3]) | self-cleavage kobs at 2500 uM GlcN6P (glucosamine-6-phosphate [4]) | self-cleavage kobs at 10000 uM GlcN6P (glucosamine-6-phosphate [5]) |
| --- | --- | --- | --- | --- | --- |
| G38U G41C | < 1e-05 s⁻¹ | < 1e-05 s⁻¹ | < 1e-05 s⁻¹ | < 1e-05 s⁻¹ | < 1e-05 s⁻¹ |
| U31A G35C A36U | < 1e-05 s⁻¹ | – | < 1e-05 s⁻¹ | – | < 1e-05 s⁻¹ |
| G7C G63C C68G U69A | < 1e-05 s⁻¹ | – | – | – | < 1e-05 s⁻¹ |
| G7A A12U | < 1e-05 s⁻¹ | < 1e-05 s⁻¹ | – | 2.22e-05 ± 8.3e-06 s⁻¹ | 7.91e-05 ± 2e-05 s⁻¹ |
| C16A U49C C71G | < 1e-05 s⁻¹ | – | – | – | < 1e-05 s⁻¹ |
| U54G G62C | < 1e-05 s⁻¹ | < 1e-05 s⁻¹ | < 1e-05 s⁻¹ | < 1e-05 s⁻¹ | < 1e-05 s⁻¹ |
| A14U U30C G44A U46G | < 1e-05 s⁻¹ | – | < 1e-05 s⁻¹ | < 1e-05 s⁻¹ | < 1e-05 s⁻¹ |
| A6C A12U G29A C68G | < 1e-05 s⁻¹ | – | < 1e-05 s⁻¹ | < 1e-05 s⁻¹ | – |
| A6G A36C G41U | < 1e-05 s⁻¹ | – | < 1e-05 s⁻¹ | – | < 1e-05 s⁻¹ |
| A12C G41U | 5.28e-05 ± 7e-06 s⁻¹ | 7.73e-05 ± 8.9e-06 s⁻¹ | 0.00028 ± 6.1e-05 s⁻¹ | 0.00034 ± 6.3e-05 s⁻¹ | 0.00129 ± 0.00013 s⁻¹ |
| G59C G62U | < 1e-05 s⁻¹ | < 1e-05 s⁻¹ | – | – | < 1e-05 s⁻¹ |
| A14G U31A | 0.00248 ± 0.00049 s⁻¹ | 0.0027 ± 0.00061 s⁻¹ | 0.00935 ± 0.0021 s⁻¹ | 0.0146 ± 0.006 s⁻¹ | 0.0669 ± 0.024 s⁻¹ |
| C8U C11U U57G C67G | 0.000617 ± 0.0003 s⁻¹ | – | 7.99e-05 ± 3.8e-05 s⁻¹ | – | 0.000608 ± 0.00023 s⁻¹ |
| C16G A33U | < 1e-05 s⁻¹ | – | – | – | 3.36e-05 ± 1e-05 s⁻¹ |
| A52C G62U | < 1e-05 s⁻¹ | < 1e-05 s⁻¹ | – | – | < 1e-05 s⁻¹ |
| G9C A12C A14U U49G | < 1e-05 s⁻¹ | – | – | < 1e-05 s⁻¹ | – |
| G13A G37U A39G G41C A42C G43A | < 1e-05 s⁻¹ | – | – | – | < 1e-05 s⁻¹ |
| G9A A15G | < 1e-05 s⁻¹ | < 1e-05 s⁻¹ | < 1e-05 s⁻¹ | – | 2.27e-05 ± 1.1e-05 s⁻¹ |
| A6U C10A G40A U46G | < 1e-05 s⁻¹ | – | – | – | < 1e-05 s⁻¹ |
| A15G C34A | < 1e-05 s⁻¹ | < 1e-05 s⁻¹ | < 1e-05 s⁻¹ | – | – |

From the supplement of paper PMC7125110
